Substrate in the data set: C[S+](CC[C@H](N)C(=O)[O-])C[C@H]1O[C@@H](n2cnc3c(N)ncnc32)[C@H](O)[C@@H]1O
In words: purified protein. The note with it: varied: cofactor.

B1: PRMT7 (TbPRMT7) (Trypanosoma brucei brucei TREU927) (protein)
chain: MPPKQHRHQKKDKNDNALQNTIGFVPPGATLASVSGYRPPDAFVNRIDRNIPVPARLRHTPVSLIEAVNDFHYAMMNDEERNNFYYEVLKKHVTPETGVLEIGAGSGLLSLMAAKLGAKWVVAVEGSEELAKLARENIRANNMEHQVKVLHMMSTELKSKHLPEPPDVLLSEIFGTMMLGESALDYVVDVRNRLLKPTTKIIPQFGTQYAVPIECDALHRISSVSGWRDLDLKHMMTLQDTVSIVFAKHYGIRMNSVNFRRLSDPIELFRVDFSSSNRNDIPRRKHFDVVAKESGTAHAMLFYWKVTDDEFVMSTDPEDTVNNFPRDMQWGQALQLLDASNGPLPTPVVFTEGKNYNFECNFSGDRVILHMQLCPESGNGEMTECEGKTT
In the case of B1, the Michaelis constant (Km) is 1.1 ± 0.2 µM and the kcat was 22.3 ± 0.6 h^–1.

In general, Km refers to the substrate concentration at which the rate is half of its maximum.
